This is an account of results in the domain aggregation screens of Martell et al. (2025).

Some results are limits rather than exact numbers.
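Note: 20 min heating vs room temperature control held 20 min.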

The nature of this data set: soluble fraction after stress (log2 fold change); higher = more stays soluble; pooled small domains, quantitative proteomics. Particulars: stress: 75 degC.
Turning to “HMSAEGPALADWVVRDAHSIGAKITNSVAQLLIDRVGHNQQLLHNELQKLALVQTDISAELVKTMSHY”, the “soluble fraction (log2)” value is -0.643.
For the sequence “HMSAETRSWTDAQGNQTQAVLRGFDGGDVLLQNAAGKTLRVPVKNLSEDDQRYVVLNISTLID”, the “soluble fraction (log2)” value is -0.0549.
To “HMSAITLDQARAIALDHAGISEGDATFVKEQTGTSSYEIEFYSGSNEYDYEIDKATGAILNVDR” belongs 0.22.
To “HMSALAEELIKKNQAMILTIKPRDTIWGIANRFQSPPSEKFINQIIELNQVDPYRLRIGQDLLIPLN” belongs -0.984.
With “HMSALTDQQQRVLELVASGLVYKEVAAALSISEPTVKYHMGNILTRLHVKNRAQAIAAARQQGLL”, the “soluble fraction (log2)” value was -1.58.
As to “HMSAMKYTSEVFQRLSRGQFISSNSIDAETRAIYSDIEENQQEYEDYFSKIDFLLSSGDGFYYFSRK”, the “soluble fraction (log2)” value was -2.38.
For the sequence “HMSAMSPTEVGERLRLAREAVRMTQKQAADAISVARTTLVAIEQGQRRVRIDELQQLAKTYGVSVNAILR”, the “soluble fraction (log2)” value was -2.27.
Turning to “HMSAPAKKPKIKVDLSKVHAGTIVRHKGYGLGQVKGIDGAIIVVTFDGVDKKFQFPGGFENGFLFLTED”, the “soluble fraction (log2)” value was -1.48.
Next, “HMSAPLKELGNDPESGKPIVVKDGRFGAYVTDGETNATLRKTDAVESLTPERAAELLAEKRAKG”: 0.493.
Next, “HMSAPTAFSERELELLAGMRRGASNKAMAEQLFISVNTVKYHRANLMRKLGARDRNEALEVAARLG”: 0.404; “HMSAQDLIVKTDATQVEARVLEISPEQIRYKRFSNPDGPTYVLPVDAVDYIRYANGETDSFR”: 0.076; “HMSASAIYVRPKDVKEPEEVADYLSGVLELDREKLYKKITDKSQWIALIERKVDNDIAFDIRNKKFKGIEI”: -0.301.
On to “HMSASIAEGTVIMLENTTNIRSGMSEDSSKVGTAYAGEKVTVVMSYAEGWTKVKWNGETGYIKTALLQL”, for which the “soluble fraction (log2)” value is -0.607.
Next, “HMSASNSIDFANRMIYNKNQVAVFNFGKHMGRPVLEVLKSDPSYYDWMMKGDFPMDTKRKLTEIKLQGF”: -0.793; “HMSATPQRMTIIDALDSSGKNLSAYELLDLLNDKGQLFNISTIYRVLDFWIEMGIVHKINSSNTYL”: 0.15.
Take “HMSATQDAAIAVRIRDILSELDGYEDVTVTVTSGIVTMRGTTLDSEKIARLNDLTGRVEGVVAIENSVTET”: the “soluble fraction (log2)” value is -0.207.
In the case of “HMSAVIGTATVTTSSGSLNLRESASLYSRVIRTIPRGATVDVLSRDTSWSRVRYAGSEGYVLNQYLTFQT”, the “soluble fraction (log2)” value is -2.1.
On to “HMSDAGMNQIGDMFRAPDLMAKLAMNPATREYVSQPDFLAMMEEVKRNPSALNNHLRDPRMMNVLSVAM”, for which the “soluble fraction (log2)” value was -0.271.
To “HMSDAPLLSIRSLAVAFDGTRVVDGVSFDVARGEVVALVGESGSGKTVTGLSLLDLVPPPGRRVGGEV” belongs 0.278; to “HMSDDAVVRMRVPEDALGLSLRETDFRQRFGVYVLAIETRDGKLLAPPDPQRPLGKDDVLVVIQKR”, -0.847.
Regarding “HMSDDLLTGLDAYSRGDWTTATASFERVLTTADPNNRTEALYWLVMSETSAQNYQRALNYANTFL”, the “soluble fraction (log2)” value is -0.707.
Turning to “HMSDDSTIVELLASSLRRDIAFGTLLPDQKLKLNELRTRYGGSIHSMRETLRILSAEGLVEATAQRGFRVT”, the “soluble fraction (log2)” value worked out at 0.0731.
To “HMSDEIQLQFIQISIFKDHPWADMQIKDMNIIPDLLIVMILRDGERIIPNGNTRIMPGDMVIITAMSANT” belongs -2.54.
To “HMSDESALIAAIEKAIAAQPETAEKVRNGHLPAAGALIGSVMKETKGQADAARVRELLLGLLGQ” belongs 0.441; to “HMSDESRAEIVSSAKRLFQQYGYKKTTVSDIAKAMGKVKSAIYYYFPDKESLLRAVIDEEVG”, 0.0318; to “HMSDFEASDPALLREGMRVQHLNFGKGTVITIEGAGANKKASVAFDGVGTKQLMLRFARLKIIYE”, -2.59.
To “HMSDFKDIILKLRNEQGFTQEKLADVLGTSKSTVGMWEMGVRFPSKELYEAIADYFNVDIDYLYGRTDIR” belongs -0.83.
As for “HMSDGYETLVNMAKPFLNNSKQITENDITDAVNTVSVMLKKRYDMTDEDIRKAVSELLHFYA”, the “soluble fraction (log2)” value was -0.305.
Next, “HMSDIDHIAGRRIRQARLNAGMTLETLASQAGISKALLSKIENSKVSSPLATFSKISKVLGVPLSDLLKE”: -0.748; “HMSDILALMPGTIKQILVAPGDSVKRGQTVIIMESMKMELTIAAHRDGVVKRIPVEQGGQVEKGMRLLELE”: -1.86; “HMSDIPEGYMSRVQLGDEWGIHLATFDKAVIAVKEKLGTVVFIDKSNNTTAGYSPEQQTIIYDWLAEN”: -2.22.
Next, “HMSDKNVYGKYKNVFLSDEEFSELKQFYPNDWSDRIETLSEGIELKGYKYKNYLLAIKKWAEYEGQKAD”: -0.47.
To “HMSDKPIFIDTAGIAALSAIGFSKYQATIIFNYIKKGGAIYTVKDLAKIYSIDQKTIDLTQSKIIFS” belongs 0.365; to “HMSDKPRYYINGNTLFISDKSVKKVLFSDLSGRSILHTTETAINIATFRGAHILTVIYTDGSTKSEVIF”, -1.47.
Regarding “HMSDLLYAHPTEKGFQLVNVTQKVVMVILKTAAPNVYTVKGKNAIVFKEGNSWFYSENHNKKLLNIK”, the “soluble fraction (log2)” value is -3.18.
To “HMSDLQTGDINQDGTVDEKDLSLLHSYNLELIKTISNAADLNEDGVINGLDEAYLKRLFLQNSDP” belongs -0.122; to “HMSDLTEVIVKFSGDIQPIRQDLDAQVEILLKGYAIITLSPNKIGRLYSYPQIESIEIPKNLYI”, -2.73; to “HMSDPASLQRRLMSDPELTARILDSPFTRSLLDDPNLLRQMVNANPQLRRAMDANPQLRHAL”, -0.267.
Next, “HMSDPEAFIRQTVAAAEPEGIALSVLGKRVRGKFRTFKLRDLGYAQFRPYLGDLDGIKVEQRDGQSYARLD”: -1.03.
Next, “HMSDPSRKADFIAALSSLGGSAGNGKLREQLGWDEPTYDAVKQTLLDEGAITNGRGRGGSVALAG”: 0.976; “HMSDPTDRLVLEAALKALGEEERQVVLLHAASGLKHREIARDLGLPLSTVLSRYSRALKKLQRYLTEEGVH”: -1.2.
As to “HMSDPVDDLLLRISQQAGVARGQLVAELNMLVQDRFGGNLRHEAAAVLMAKRYGIEFRDLLPALREHLVKN”, the “soluble fraction (log2)” value is -0.804.
Next, “HMSDPVKQVAMRILDLREISDYTVDKMAEVLNVPVEEYRKYESGEVDMPISFLVKIGEVFHVDMTELLTG”: -1.55; “HMSDQTYVKDPETGEIFRVHKRVWETGEFWRDPVWGNILGGVERGSELERLLREEGWRPLQQSLEGFPEQ”: -0.284.
Next, “HMSDRESYGRYRNVSLTLSEYESLKNEYPLYADKYIERLSEYMETAGKHYNNHYATILSWLSKDIK”: -0.201; “HMSDSGLPLPRFVSLGDDRVNARAGPGFRFPINWVYLRKNFPVEVIDEFGHWRRIKDIDGIEGWIHLSML”: -0.793; “HMSDTSELESIIAQIIEDNPKSIEDIGAGNQKAYGFLTGQVMKATKGQANPQVANKIIRELVARKLE”: at least 1.04.
Next, “HMSDTVDITKLGIAGKTKEAAEALLKENGFSVESKEENSDTIEKGKVISYSPTKPKNGDRITLIVSSGKK”: 0.294.
Take “HMSEDTYNTLTKGTRVYNGVDYGAKYGYNPLYYFLNYNDLRIAYGADPAKLVEHYALFGIKENRVANRQIT”: the “soluble fraction (log2)” value is -1.33.
Regarding “HMSEEELETSGLVKRSAKGNLYDIFRHRVMVPIIDVRGAIIAFGGRVLDDSKPKYINSPETMVY”, the “soluble fraction (log2)” value is -0.0708.
To “HMSEEQLKAFLEKVQGDTSLQEKLKAAADANAVVEIAKEAGFSISADDLKNAQSELSEEELE” belongs -0.00468; to “HMSEEVDVPDLVGMQLEEAEKSLEPLGLKLKIAKEIPNSEFEKGKIVDQKTKAGEKVKTGYTIEVTVSSG”, -0.126; to “HMSEFAYPISLNGKTKFNLALSLALTKEEIEKEVLANADVQKFLNGQTPKKLIVVPGKIVNVV”, -0.386.
To “HMSEGEMSQWIIAQAKQQGGGFQPDAARLLGSYVGNNTLRARQEIDKLLTYVGPSRVVTPEDVVLLTA” belongs -0.23.
As for “HMSEHKFIVPEEFNLKRLDQTVAAQFEKISRTKISKIIKSSLLKVNDKVVTDQSIKIKQDDVITFTEIKDQ”, the “soluble fraction (log2)” value is -0.421.
Next, “HMSEKRLHLVVDESDVNTRIDKYIADELDGYSRSFIQKLIKDNNVLVNGRAVKPNYNIGISDNIDIVLPKL”: 0.0186; “HMSELIDSLTEAVRSAPDAVPLRLHLAELLLADGQRDRAFAQLGQVLAKDPQNARALEMLGVGS”: -0.129.
Next, “HMSELSEVIEKTFEELPEELKLIVKLREIDDLSYDEISNKIGIPIGTVRSRLHRAREILINIIKN”: -2.5.
Regarding “HMSELSGSQLKAIREEKHIPLEQVASATRIRLSLLEALEMDEYAELGSRTQARGFLKLYADFLGVPFEA”, the “soluble fraction (log2)” value is -1.53.
To “HMSEMDNMEWVREQYFQNMIYEIGEWVRDKKTGIVGEVVKRGTNYVTVVQEDFSLHKIWLEDLETTEK” belongs -0.841; to “HMSEMLPFDEARRQFERDYLVQLLKLTSGNVSQAARLARRNRTDFYALLGRHQLEPASFKPE”, -0.971; to “HMSEMVIPEDFLAALETNPQAKAFYATLNRQNQYAVYHRLQTAKRPETRAKRIADFVAQLAAGKRF”, -1.03.
Turning to “HMSEPHPPFQVVAQFPYKSEYEDDLNFEKDQIITVTSIEDDEWYYGDFKNKGGELVEGIFPKSFVTVK”, the “soluble fraction (log2)” value is -0.31.
Take “HMSEPQYKVLFSNLDDRDGGAIVTALGAMNVPYKYNDTGTALLVPADRVYDARLQLASQGLPRG”: the “soluble fraction (log2)” value was 0.262.
Next, “HMSEPTVVAINETLTSERLDRYLTTQLPHISRGGIQRLLRKGNILVDGKPAKPTQHPVAGQTVEITWPIPK”: -0.607; “HMSEQMQVGELVFQLHRKAIKNLHINVLPPDGFVRVSAPQAMTETAIRTAVISRLPWIRRQQQAFAAQ”: -3.48.
Take “HMSERVVEIDPSQLRPGLFIRLPSGWMNHPFLFNQFRINSAEQVEIIQKLGLKTVQYLPERSSTQALPRA”: the “soluble fraction (log2)” value was -1.95.
“HMSESEDFQNRWRPWRSLLDDETPVVREALVDQLKLFPEEGRLFLQQMSEEDDPISARHAFELIKSLGW”: the “soluble fraction (log2)” value was -0.363.
To “HMSETAVTYNEDFEADGSLRPNEQAVLDAFTGVLKLTVSELEKKTGLRNVVPVVASLMAKGAVEVSEELK” belongs -0.0304.
Consider “HMSETEWGEIYRKVMAAGLIPARSVRERLLALPSIEPLLQAAEAAGSKGMLDETLLDSLLSKT”, for which the “soluble fraction (log2)” value was found to be 0.0662.
